Experimental data reported in the supplement of paper PMC10567573.

B1: KRT33B (parent)
chain: YQSYFKTIEELQQKILCSKSENAR

Variants of: B1
Test: protein stability index of a GFP-peptide fusion (GPS, HEK-293T) (PSI 1-6); higher = more stable
Conditions: c terminus: a fixed tail appended
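Further: lentivirally expressed fusions sorted by FACS into six bins by GFP to DsRed ratio, PSI derived from sequencing read proportions per bin multiplied by bin number.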

Protein stability index: each site, then its substitutions
L16: P 2.12; F 1.93; G 1.92; Q 1.88; H 1.96; A 2.13; Y 1.41; D 1.87; K 2.39
S20: G 1.38; P 1.99; L 1.73; R 1.89; Y 1.95; T 1.87; E 1.65; W 1.56
S18: K 1.86; H 1.84; R 2.18; Q 2.26; E 2.12; C 2.65; A 2.21; N 1.92; W 1.97
S3: Q 2.38; F 1.46; E 2.42; G 1.33; H 1.59; N 1.79; M 1.78; Y 2.54
Y4: I 1.96; A 2.1; V 2.19; T 1.74; D 2.34; Q 1.58; S 1.54; K 1.5; N 1.85; H 1.81
F5: Y 2.32; H 1.84; D 3.8; I 2.12; R 2.53; A 2.37; N 2.91; V 2.26; S 2.81; G 2.92; L 2.07
N22: E 1.89; R 1.49; I 1.71; Y 1.86; Q 2.19; T 1.39
K19: E 2.56; H 1.76; L 1.54; T 2.3; S 1.78; R 2.06; W 1.57; Q 2.08; N 1.86
Q13: N 2.19; M 1.4; P 1.83; W 2.6; D 1.55; C 1.3; G 2.09; Y 1.65; K 1.85
I15: T 1.81; G 2.25; E 1.81; K 1.64; N 1.85; V 1.7; D 2.05; P 2.3; W 1.71; L 1.67
A23: Q 2.36; K 1.76; D 1.62; T 2.27; L 1.73; N 2.24; P 1.68; H 1.68; I 1.9
Q2: V 2.2; K 3.17; Y 2.16; H 2.01; I 2.63; T 1.76; D 2.98; R 2.63; L 2.46
T7: F 2.11; V 2.25; A 2.21; K 1.88; E 2.31; S 1.73; D 2.42; Q 1.84; P 1.85; M 2.12; R 1.88
E9: R 2.99; I 1.9; L 2.17; S 2.99; Q 1.98; C 1.79; Y 2.33; P 1.66; K 2.9; M 1.78; D 1.9; H 2.25; T 2.12
L11: R 1.62; S 1.84; K 1.42; Y 1.8; P 2.06; G 2.02; E 2.01; I 1.81; M 1.6; F 1.75; W 2.2
K14: N 1.7; R 2.57; L 2.14; F 2.02; S 1.97; G 1.25; H 2.28; W 3.51; P 1.45; C 2.14; A 1.53; E 1.82
I8: S 1.51; H 2.42; E 3; F 2.01; T 1.63; W 1.94; M 1.79; Q 2.06; V 2.19
K6: G 1.5; H 1.62; Q 1.64; N 1.88
